Laboratory results from US20030166868A1 (Genentech, published 2003).

T1: FcγRIIa α subunit ECD-6His-GST fusion protein (UniProt P12318 34-217)
T1 construct: Expressed in 293 cells; not shown: glutathione S transferase (GST)
T1 sequence: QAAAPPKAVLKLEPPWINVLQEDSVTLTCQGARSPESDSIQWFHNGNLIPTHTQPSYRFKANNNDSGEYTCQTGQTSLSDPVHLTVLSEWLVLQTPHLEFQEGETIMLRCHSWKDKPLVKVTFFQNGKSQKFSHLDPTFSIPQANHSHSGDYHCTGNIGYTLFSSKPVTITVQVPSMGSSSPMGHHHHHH

T2: FcγRIIb α subunit ECD-6His-GST fusion protein (UniProt P31994 43-217)
T2 construct: Expressed in 293 cells; also called FcγRIlb; not shown: glutathione S transferase (GST)
T2 sequence: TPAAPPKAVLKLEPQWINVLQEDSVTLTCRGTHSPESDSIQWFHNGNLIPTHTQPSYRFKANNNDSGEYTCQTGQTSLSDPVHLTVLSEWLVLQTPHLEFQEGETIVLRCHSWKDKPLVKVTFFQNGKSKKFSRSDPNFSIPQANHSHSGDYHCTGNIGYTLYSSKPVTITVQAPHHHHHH


How the values were obtained:
[1] = target: T3, FcγRI α subunit-GST fusion (UniProt P12314 16-292); assay: ELISA, monomeric IgG at 10 ug/ml on plate-coated FcγRI α subunit-GST fusion
T3 construct: ECD-6His-GST fusion expressed in 293 cells; not shown: glutathione S transferase (GST)

[2] = target: T1, FcγRIIa α subunit ECD-6His-GST fusion …; assay: ELISA, E27:chimeric IgE:VEGF (1:1:2) immune complex on plate-coated receptor ECD-6His-GST
[3] = target: T4, FcγRIIIa α subunit ECD-6His-GST fusion protein (UniProt P08637 17-208); assay: as above
T4 construct: Expressed in 293 cells; also called FcγIII; FcγIIIa; not shown: glutathione S transferase (GST)

[4] = target: T2, FcγRIIb α subunit ECD-6His-GST fusion …; assay: as above

T4 sequence (P08637 other isoform, or with tags, fused parts or gaps, form in doubt): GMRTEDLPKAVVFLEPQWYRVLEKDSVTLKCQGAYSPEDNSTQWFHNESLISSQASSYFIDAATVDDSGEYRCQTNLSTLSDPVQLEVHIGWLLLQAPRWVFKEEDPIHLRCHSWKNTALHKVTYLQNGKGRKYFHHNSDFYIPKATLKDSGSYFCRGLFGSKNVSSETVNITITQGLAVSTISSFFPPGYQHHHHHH
T3 sequence (P12314 other isoform, or with tags, fused parts or gaps, form in doubt): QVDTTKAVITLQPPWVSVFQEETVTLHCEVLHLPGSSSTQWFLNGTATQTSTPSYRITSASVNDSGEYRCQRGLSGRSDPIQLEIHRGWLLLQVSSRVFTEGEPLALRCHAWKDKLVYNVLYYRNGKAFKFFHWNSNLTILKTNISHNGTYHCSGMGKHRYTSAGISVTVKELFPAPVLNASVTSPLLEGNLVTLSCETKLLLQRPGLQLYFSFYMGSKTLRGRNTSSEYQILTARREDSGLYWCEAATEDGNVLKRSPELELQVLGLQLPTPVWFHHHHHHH

binding as a percentage of the wild type [1] | binding as a percentage of the wild type [2] | binding as a percentage of the wild type [3] | binding as a percentage of the wild type [4] | Binder
90 % of wild type | 109 % of wild type | 90 % of wild type | 101 % of wild type | E27 anti-IgE antibody mutant K322A (antibody, also called K322A (E27 background)) heavy: not shown light: DIQLTQSPSSLSASVGDRVTITCRASKPVDGEGDSYMNWYQQKPGKAPKLLIYAASYLESGVPSRFSGSGSGTDFTLTISSLQPEDFATYYCQQSHEDPYTFGQGTKVEIKRTVAAPSVFIFPPSDEQLKSGTASVVCLLNNFYPREAKVQWKVDNALQSGNSQESVTEQDSKDSTYSLSSTLTLSKADYEKHKVYACEVTHQGLSSPVTKSFNRGEC
102 % of wild type | 94 % of wild type | 72 % of wild type | 83 % of wild type | E27 anti-IgE antibody mutant K320A (antibody, also called K320A (E27 background)) heavy: not shown light: DIQLTQSPSSLSASVGDRVTITCRASKPVDGEGDSYMNWYQQKPGKAPKLLIYAASYLESGVPSRFSGSGSGTDFTLTISSLQPEDFATYYCQQSHEDPYTFGQGTKVEIKRTVAAPSVFIFPPSDEQLKSGTASVVCLLNNFYPREAKVQWKVDNALQSGNSQESVTEQDSKDSTYSLSSTLTLSKADYEKHKVYACEVTHQGLSSPVTKSFNRGEC
74 % of wild type | 86 % of wild type | 73 % of wild type | 58 % of wild type | E27 anti-IgE antibody mutant P331A (antibody, also called P331A (E27 background)) heavy: not shown light: DIQLTQSPSSLSASVGDRVTITCRASKPVDGEGDSYMNWYQQKPGKAPKLLIYAASYLESGVPSRFSGSGSGTDFTLTISSLQPEDFATYYCQQSHEDPYTFGQGTKVEIKRTVAAPSVFIFPPSDEQLKSGTASVVCLLNNFYPREAKVQWKVDNALQSGNSQESVTEQDSKDSTYSLSSTLTLSKADYEKHKVYACEVTHQGLSSPVTKSFNRGEC
104 % of wild type | 111 % of wild type | 85 % of wild type | 96 % of wild type | E27 anti-IgE antibody mutant P329A (antibody, also called P329A (E27 background)) heavy: not shown light: DIQLTQSPSSLSASVGDRVTITCRASKPVDGEGDSYMNWYQQKPGKAPKLLIYAASYLESGVPSRFSGSGSGTDFTLTISSLQPEDFATYYCQQSHEDPYTFGQGTKVEIKRTVAAPSVFIFPPSDEQLKSGTASVVCLLNNFYPREAKVQWKVDNALQSGNSQESVTEQDSKDSTYSLSSTLTLSKADYEKHKVYACEVTHQGLSSPVTKSFNRGEC

Second part, the binder before the results:

Binder | binding as a percentage of the wild type [1] | binding as a percentage of the wild type [2] | binding as a percentage of the wild type [3] | binding as a percentage of the wild type [4]
E27 anti-IgE antibody, wild type (humanized IgG1) (antibody, In the FcγRIIa, FcγRIIb and FcγRIIIa ELISAs it stood as an immune complex E27:chimeric IgE:VEGF (1:1:2); in the FcγRI ELISA as monomeric IgG; also called recombinant anti-IgE E27; wt) heavy: not shown light: DIQLTQSPSSLSASVGDRVTITCRASKPVDGEGDSYMNWYQQKPGKAPKLLIYAASYLESGVPSRFSGSGSGTDFTLTISSLQPEDFATYYCQQSHEDPYTFGQGTKVEIKRTVAAPSVFIFPPSDEQLKSGTASVVCLLNNFYPREAKVQWKVDNALQSGNSQESVTEQDSKDSTYSLSSTLTLSKADYEKHKVYACEVTHQGLSSPVTKSFNRGEC | 100 % of wild type | 100 % of wild type | 100 % of wild type | 100 % of wild type
E27 anti-IgE antibody mutant E318A (antibody, also called E318A (E27 background)) heavy: not shown light: DIQLTQSPSSLSASVGDRVTITCRASKPVDGEGDSYMNWYQQKPGKAPKLLIYAASYLESGVPSRFSGSGSGTDFTLTISSLQPEDFATYYCQQSHEDPYTFGQGTKVEIKRTVAAPSVFIFPPSDEQLKSGTASVVCLLNNFYPREAKVQWKVDNALQSGNSQESVTEQDSKDSTYSLSSTLTLSKADYEKHKVYACEVTHQGLSSPVTKSFNRGEC | 93 % of wild type | 113 % of wild type | 104 % of wild type | 106 % of wild type
